{"source": "patent US10253089B2", "about": "“Matrix metalloproteinase cleavable protein polymers for cancer gene therapy” (The University of Utah Research Foundation, priority 2012, dated 2019)", "molecules": {"B1": {"name": "SELP815K: silk-elastin-like protein polymer, longer silk units, fifteen elastin units, lysine elastin unit; monomer repeated 6 times (SEQ ID NO. 21) (protein)", "chain": "MDPVVLQRRDWENPGVTQLNRLAAHPPFASDPMGAGSGAGAGSGAGAGSGVGVPGVGVPGVGVPGVGVPGKGVPGVGVPGVGVPGVGVPGVGVPGVGVPGVGVPGVGVPGVGVPGVGVPGVGVPGVGVPGAGAGSGAGAGSGAGAGSGAGAGSGAGAGSGAGAGAGSGAGAGSGAGAGSGVGVPGVGVPGVGVPGVGVPGKGVPGVGVPGVGVPGVGVPGVGVPGVGVPGVGVPGVGVPGVGVPGVGVPGVGVPGVGVPGAGAGSGAGAGSGAGAGSGAGAGSGAGAGSGAGAGAGSGAGAGSGAGAGSGVGVPGVGVPGVGVPGVGVPGKGVPGVGVPGVGVPGVGVPGVGVPGVGVPGVGVPGVGVPGVGVPGVGVPGVGVPGVGVPGAGAGSGAGAGSGAGAGSGAGAGSGAGAGSGAGAGAGSGAGAGSGAGAGSGVGVPGVGVPGVGVPGVGVPGKGVPGVGVPGVGVPGVGVPGVGVPGVGVPGVGVPGVGVPGVGVPGVGVPGVGVPGVGVPGAGAGSGAGAGSGAGAGSGAGAGSGAGAGSGAGAGAGSGAGAGSGAGAGSGVGVPGVGVPGVGVPGVGVPGKGVPGVGVPGVGVPGVGVPGVGVPGVGVPGVGVPGVGVPGVGVPGVGVPGVGVPGVGVPGAGAGSGAGAGSGAGAGSGAGAGSGAGAGSGAGAGAGSGAGAGSGAGAGSGVGVPGVGVPGVGVPGVGVPGKGVPGVGVPGVGVPGVGVPGVGVPGVGVPGVGVPGVGVPGVGVPGVGVPGVGVPGVGVPGAGAGSGAGAGSGAGAGSGAGAGSGAGAGSGAGAMDPGRYQDLRSHHHHHH", "modifications": "monomer repeated 6 times; Hybrid of Homo sapein and Bombyx mori"}}, "key": {"[1]": {"assay": "Dynamic mechanical analysis (DMA) of SELP hydrogels", "format": "physicochemical", "settings": "12 wt % hydrogels", "text": "It was predicted that polymer structure would also play a large role in the mechanical properties of the hydrogels. Dynamic mechanical analysis (DMA) was used to examine hydrogels made from each of the SELP analogues, and as predicted, there was a strong dependence of the results on the silk and elastin content of the polymers, and the arrangement of the silk and elastin blocks. […] This is opposite the order observed in the swelling studies, which is to be expected assuming the crosslinking density decreases with increasing swelling and decreasing mechanical properties for analogous materials. The legend for the graph shown in FIG. 8 is as follows: triangles: SELP-47K, squares: SELP-815K, diamonds: SELP-415K. Highly controlled structure in SELPs allows fine-tuning of mechanical properties.\nTo gain further insight into the hydrogel pore structure, network properties were examined as a function of polymer sequence by small angle neutron scattering (SANS) techniques (FIG. 9). SANS allows the examination of microstructures in the range 1-100 nm through the analysis of elastic neutron scattering. […] The calculated correlation length (Table 3) depicts a trend in the observation that are in the order SELP-415K>SELP-815K>SELP-47K. […]"}, "[2]": {"assay": "Small angle neutron scattering (SANS) of SELP hydrogels", "format": "physicochemical", "settings": "12 wt %", "text": "To gain further insight into the hydrogel pore structure, network properties were examined as a function of polymer sequence by small angle neutron scattering (SANS) techniques (FIG. 9). SANS allows the examination of microstructures in the range 1-100 nm through the analysis of elastic neutron scattering. SANS analysis was used to examine the correlation between the observed macroscopic properties of SELPs (12% wt), such as equilibrium swelling and mechanical modulus, with the underlying network structure. […] SELP hydrogels conformed closely with a modified gel model of the general form I(Q)=AQ^b+(BQ^2ε^2)^2+C, which uses a power-law fit for the high q scattering combined with the Debye-Bueche model at low to intermediate Q (above Q=0.02 Å^−1). The combined Debye-Bueche/power law model provided a nearly complete fit over the full q-range of collected data. […] The calculated correlation length (Table 3) depicts a trend in the observation that are in the order SELP-415K>SELP-815K>SELP-47K. […] The silk blocks of SELP-415K are separated by elastin blocks twice the length as −47K, and as these cross-linking blocks move further apart, the elastin-like nature of the SELP becomes more pronounced and the storage modulus decreases. SELP-815K presents an interesting case where the silk blocks are doubled in length over SELP-47K while also having a long elastin block as in SELP415K."}, "[3]": {"test_system": "JHU-022 head and neck cancer xenografts", "assay": "Quantitative viral gene expression (β-gal) in vivo, tumor and liver", "design": "species or system athymic nude (nu/nu) mice", "settings": "4 wt %", "procedure": "Head and neck cancer xenografts were established by subcutaneously injecting 2×10^6 JHU-022 cells suspended in 200 μl Phosphate Buffer Saline (PBS) bilaterally in the flank of athymic nude (nu/nu) mice. Tumors were allowed to grow for two weeks to reach an average diameter of 7 mm. […] Virus-polymer solutions were prepared by thawing SELP and virus stocks and mixing them gently with physiological saline. Mice were anesthetized using 4 wt % isofluorane mixed with oxygen, and intratumorally injected with 25 μl of the polymer-virus solutions using a Hamilton syringe. Mice were euthanized on days 7, 14, and 21 and tumor and liver tissue were isolated. CPRG β-gal colorimetric assays were performed as described previously in the scientific literature. […] Recovered tissue lysates were then centrifuged for 45 minutes at 14,000 rpm and, subsequently, upper aqueous layers were used for β-gal quantification. […]\nPolymer structures and compositions that formed robust hydrogels were selected for matrix-mediated delivery of reporter genes in a murine model of HNSCC. […] Animals were sacrificed at days 7, 14, and 21 for analysis of gene expression, and analyzed using a colorimetric tissue lysate assay for β-galactosidase. […]"}, "MMP-9": {"molecular_target": "MMP-9 (Homo sapiens, UniProt P14780)", "sequence (P14780 94-707)": "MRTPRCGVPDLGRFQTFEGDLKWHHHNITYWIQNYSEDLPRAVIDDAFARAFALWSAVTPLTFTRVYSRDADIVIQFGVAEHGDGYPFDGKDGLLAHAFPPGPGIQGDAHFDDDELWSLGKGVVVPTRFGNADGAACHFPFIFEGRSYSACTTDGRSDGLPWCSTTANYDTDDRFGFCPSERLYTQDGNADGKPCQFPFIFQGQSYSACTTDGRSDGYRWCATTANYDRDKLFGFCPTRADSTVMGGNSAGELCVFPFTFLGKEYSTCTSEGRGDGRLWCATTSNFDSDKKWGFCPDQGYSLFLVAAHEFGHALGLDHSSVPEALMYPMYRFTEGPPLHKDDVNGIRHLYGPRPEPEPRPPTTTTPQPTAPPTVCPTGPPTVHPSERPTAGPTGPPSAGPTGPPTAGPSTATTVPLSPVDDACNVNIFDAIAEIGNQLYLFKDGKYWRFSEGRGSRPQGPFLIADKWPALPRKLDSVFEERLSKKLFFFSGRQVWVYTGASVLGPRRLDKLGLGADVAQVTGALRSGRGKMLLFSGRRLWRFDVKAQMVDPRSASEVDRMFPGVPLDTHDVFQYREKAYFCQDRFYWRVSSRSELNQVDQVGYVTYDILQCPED", "assay": "Enzymatic digest of polymer by MMP-9, SDS-PAGE", "format": "biochemical", "settings": "1 mg/ml polymer, 10 nM and 40 nM MMP-9, 2-48 hours, room temperature", "procedure": "This buffer recipe is sourced from the Molecular Probes EnzChek Gelatinase/Collagenase Assay Kit (Invitrogen, Carlsbad, Calif.), which was used to confirm the activity of MMP-2 and MMP-9 prior to use. 2× Laemmli Buffer was supplemented with 5% β-mercaptoethanol and added 1:1 by volume to the polymer solutions, which were then placed in a PCR thermal cycler and heated to 95° C. for five minutes to denature the protein. 25 μl of each sample was added to 4-15% Bis-Tris precast PAGE gel and electrophoresis was performed at 200V until the dye front reached the bottom of the gel, approximately 30 minutes. Kaleidoscope protein standard was used as a molecular weight marker. Following electrophoresis, gels were stained with GelCode Blue (colloidal Coomassie formulation) following manufacturer's instructions for staining and destaining.\n100 μl samples of each polymer were digested with a final concentration of 10 nM and 40 nM MMP-2 or MMP-9. MMP samples were incubated at room temperature for 2, 4, 12, 24, 36, and 48 hours and samples were run on PAGE gels and stained with GelCode Blue to visualize band patterns corresponding to protein degradation.\nAdditionally, this digestion is dependent on both time of exposure and concentration of MMP."}}, "data": [{"molecule": "B1", "values": [{"measurement": "storage modulus", "setting": "[1]", "value": "falls between those of SELP47K and 415K"}, {"measurement": "Debye-Bueche mid-Q slope", "setting": "[2]", "value": "~−3"}, {"measurement": "Power-law low Q slope", "setting": "[2]", "value": 3.26}, {"measurement": "tumor transfection (β-gal) compared to free virus", "setting": "[3]; Ad.CMV.LacZ 5×10^8 PFU intratumoral, week one", "value": "more than 50 fold"}, {"measurement": "difference in tumor vs. liver transfection", "setting": "[3]; Ad.CMV.LacZ, week two", "value": 55, "unit": "fold"}, {"measurement": "digestion by MMP-9", "setting": "MMP-9", "value": "is not"}]}]}
